Results reported in IntAct's records for PubMed 26211610.

B1: Translation initiation factor eIF2 assembly protein (Saccharomyces cerevisiae), Q05791 (parent)
chain: MSSQEYTTFIDIPVTRAQVEHCSYSFWSSLYPKYVPKSIVLKSLPKKFIQYLEQDGIKLPQEENSRSVYTEEIIRNEDNDYSDWEDDEDTATEFVQEVEPLIDFPELHQKLKDALNELGAVAPKLNWSAPRDATWILPNNTMKCNEVNELYLLLNASNYIMHDLQRAFKGCVDGDDIKGLKFDLVLRQWCDMNPALEFRVFVKNAHIVGATQRDLNYYDYLDELSDTFKDLIDEIVHDVVLPKFPDKSFVLDVYIPRPFNKIFIVDINPFARKTDSLLFSWNEIAAIAPPKNDVEDYELRLVTRHNTGRFASKEHSENHVPQDLVEASLNPEAIRELTQKWKELLSQQAKEESSDSENET

Variants of: B1
Conditions: with if2g_yeast GCD11, P32481
if2g_yeast GCD11, P32481, sequence (P32481 whole entry): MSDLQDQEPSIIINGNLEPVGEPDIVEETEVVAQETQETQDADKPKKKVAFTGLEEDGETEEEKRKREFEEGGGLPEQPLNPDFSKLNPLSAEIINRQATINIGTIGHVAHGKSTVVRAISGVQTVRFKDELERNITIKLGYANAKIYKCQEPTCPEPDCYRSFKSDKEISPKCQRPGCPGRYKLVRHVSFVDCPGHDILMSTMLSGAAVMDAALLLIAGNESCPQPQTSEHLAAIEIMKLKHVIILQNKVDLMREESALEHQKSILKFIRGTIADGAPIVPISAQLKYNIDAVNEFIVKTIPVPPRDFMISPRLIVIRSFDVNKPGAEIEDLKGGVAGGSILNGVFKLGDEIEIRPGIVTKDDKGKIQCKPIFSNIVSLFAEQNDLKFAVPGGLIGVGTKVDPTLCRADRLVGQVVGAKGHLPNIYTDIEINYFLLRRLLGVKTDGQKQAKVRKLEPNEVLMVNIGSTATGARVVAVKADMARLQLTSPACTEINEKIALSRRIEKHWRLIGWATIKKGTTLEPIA

| Variant | effect of a mutation on the interaction |
| --- | --- |
| D266A;I267A;N268A | decreasing interaction strength |
